Measured values from publication PMC10799422, “A role for the ATP-dependent DNA ligase lig E of Neisseria gonorrhoeae in biofilm formation”.

Biological target: T1, Ngo-Lig E (ATP-dependent DNA ligase Lig E), mature, His-tagged (Neisseria gonorrhoeae MS11, UniProt PDB:8U6X_1 1-279)
T1 sequence: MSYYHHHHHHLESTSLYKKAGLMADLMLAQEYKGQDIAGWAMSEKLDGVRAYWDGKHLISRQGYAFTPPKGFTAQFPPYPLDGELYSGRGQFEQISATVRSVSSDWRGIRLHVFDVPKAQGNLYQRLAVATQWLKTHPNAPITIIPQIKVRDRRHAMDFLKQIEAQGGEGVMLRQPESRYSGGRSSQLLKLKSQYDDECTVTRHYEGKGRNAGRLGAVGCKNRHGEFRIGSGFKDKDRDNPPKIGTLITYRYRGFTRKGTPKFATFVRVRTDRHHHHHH
Experiment: X-ray crystallography (2.44 A); 5 mM EDTA; enzyme-adenylate; open non-catalytic conformation, non-specific engagement of unbroken duplex, only 6 bp visible (averaged register); Crystallization: 478.7 uM protein, 1.2 molar excess DNA, 5 mM EDTA, 1 h on ice; crystals in 0.5 M potassium thiocyanate, 0.1 M Bis Tris Propane pH 8.0, 18 C
Details: protein: recombinant; tags: C-terminal His (N-terminal His-MBP tag cleaved by TEV); nicked duplex, 3 strands; as printed the 9-mer and 11-mer leave a 1-nt gap (C) opposite the 21-mer; blunt outer ends

B1: nicked 21-mer duplex used for co-crystallization (dsDNA)
DNA 1: ATTGCGACC
DNA 2: CACTATCGGAA
DNA 3: TTCCGATAGTGGGGTCGCAAT
modifications: 5'-phosphate on CACTATCGGAA
  binding result: binds
